From patent US20250052768A1 (UNIVERSIT T HEIDELBERG, published 2025)

What was measured:
[1] = biological target: T1, DLL1 antigen (recombinant DLL1 protein) (human, UniProt O00548 18-540, limits assumed); assay: sandwich ELISA, capture AbD33906, detection AbD33906-HRP, DLL1 2 ug/ml
T1 construct: also called Delta-like 1
T1 sequence (looked up): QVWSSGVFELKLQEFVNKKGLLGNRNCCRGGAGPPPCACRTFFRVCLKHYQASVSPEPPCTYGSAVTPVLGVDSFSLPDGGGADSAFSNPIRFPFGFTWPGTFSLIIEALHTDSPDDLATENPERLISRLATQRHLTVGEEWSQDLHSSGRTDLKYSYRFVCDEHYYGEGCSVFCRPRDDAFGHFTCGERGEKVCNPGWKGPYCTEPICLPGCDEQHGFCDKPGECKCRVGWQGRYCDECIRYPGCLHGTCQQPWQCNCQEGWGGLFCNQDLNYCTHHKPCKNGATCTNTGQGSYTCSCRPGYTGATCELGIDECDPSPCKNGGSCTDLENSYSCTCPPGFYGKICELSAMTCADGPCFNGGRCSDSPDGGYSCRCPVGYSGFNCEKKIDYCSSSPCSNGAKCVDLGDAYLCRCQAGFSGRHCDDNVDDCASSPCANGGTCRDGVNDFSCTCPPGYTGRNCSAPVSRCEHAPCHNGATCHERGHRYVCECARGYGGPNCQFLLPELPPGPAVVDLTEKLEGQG
Procedure: (§1) As control coating a-Fd (Bio-Rad antibodies, STAR126) at 5 μg/ml in PBS was used. Per well a volume of 20 μl coating solution was used. The Polystyrene ELISA plates were then incubated overnight at 4° C. with a closed lid. […] Subsequently, blocking of non-specific binding sites was performed with 100 μl per well of PBST containing 5% (w/v) BSA (Sigma-Aldrich, A7906-100). This blocking step was conducted at RT for 1-2 h. After removal of the blocking solution, five washes with PBST were performed. Thereafter, 2 μg/ml DLL1 antigen in PBST were added or PBST only (20 μl per well, triplicates were prepared). Incubation with the DLL1 antigen solution or PBST was performed at RT for 1 h. Next, the DLL1 antigen solution or PBST were removed and five washes with PBST were performed. […] After removal of this solution, ten washes with PBST were performed. […] For detection in the ELISA reader (Tecan Infinite M1000Pro Reader, Tecan Austria GmbH) excitation was performed at 320±25 nm and emission was detected at 430±35 nm.

[2] = biological target: T1, DLL1 antigen (recombinant DLL1 protein); assay: sandwich ELISA, capture AbD33906, detection AbD33905-HRP, DLL1 2 ug/ml
Procedure: as §1

[3] = biological target: T1, DLL1 antigen (recombinant DLL1 protein); assay: sandwich ELISA, capture AbD33905, detection AbD33905-HRP, DLL1 2 ug/ml
Procedure: as §1

[4] = biological target: T1, DLL1 antigen (recombinant DLL1 protein); assay: sandwich ELISA, capture AbD33905, detection AbD33906-HRP, DLL1 2 ug/ml
Procedure: as §1

[5] = biological target: N1-CD33-His6; assay: ELISA on antigen coated at 5 ug/ml, anti-Strep-HRP secondary antibody
Procedure: (§2) The binding specificity of AbD33905 in form of a bivalent Fab fragment fused to alkaline phosphatase followed by a FLAG®-tag and Twin-Strep®-tag was tested in the following ELISA:
(§3) Per well a volume of 20 μl coating solution was used. The Polystyrene ELISA plates were then incubated overnight at 4° C. with a closed lid. […] Subsequently, blocking of non-specific binding sites was performed with 100 μl per well of PBST containing 5% (w/v) non-fat dry milk. This blocking step was conducted at RT for 1-2 h. After removal of the blocking solution, five washes with PBST were performed. Thereafter, AbD33905 in form of a bivalent Fab fragment fused to alkaline phosphatase followed by a FLAG®-tag and Twin-Strep®-tag in PBST was added (20 μl per well). Incubation with this AbD33905 Fab fragment was performed at RT for 1 h. Next, the AbD33905 Fab fragment containing solution was removed and five washes with PBST were performed. Thereafter 20 μl/well of 2 μg/ml anti-Strep-HRP secondary antibody (Bio-Rad antibodies, MCA2489P, 1:5000) in HISPEC assay diluent (Bio-Rad Antibodies, BUF049) were added and incubated at RT for 1 h. After removal of this solution, ten washes with PBST were performed. […] For detection in the ELISA reader (Tecan Infinite M1000Pro Reader, Tecan Austria GmbH) excitation was performed at 320±25 nm and emission was detected at 430±35 nm.

[6] = biological target: bovine serum albumin (BSA) (bovine, UniProt P02769 25-607); assay: as above
Sequence of bovine serum albumin (BSA) (P02769 25-607 limits assumed): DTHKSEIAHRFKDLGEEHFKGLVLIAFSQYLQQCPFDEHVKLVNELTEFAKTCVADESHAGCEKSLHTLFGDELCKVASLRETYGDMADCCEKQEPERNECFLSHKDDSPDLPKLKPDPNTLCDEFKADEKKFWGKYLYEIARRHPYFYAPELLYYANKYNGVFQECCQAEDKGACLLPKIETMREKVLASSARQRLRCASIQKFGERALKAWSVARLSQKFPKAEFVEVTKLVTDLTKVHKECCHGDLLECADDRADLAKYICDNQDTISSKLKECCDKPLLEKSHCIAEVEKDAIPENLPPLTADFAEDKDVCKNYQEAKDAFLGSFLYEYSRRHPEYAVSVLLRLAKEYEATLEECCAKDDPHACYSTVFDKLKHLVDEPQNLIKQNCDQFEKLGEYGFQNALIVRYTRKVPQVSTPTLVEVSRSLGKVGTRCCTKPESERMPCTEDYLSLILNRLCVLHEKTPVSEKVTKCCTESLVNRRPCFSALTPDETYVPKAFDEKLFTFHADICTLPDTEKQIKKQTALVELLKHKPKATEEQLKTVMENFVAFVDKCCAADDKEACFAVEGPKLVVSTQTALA
Procedure: as §2, §3

[7] = biological target: GST; assay: as above
Sequence of GST (P08515 2-218): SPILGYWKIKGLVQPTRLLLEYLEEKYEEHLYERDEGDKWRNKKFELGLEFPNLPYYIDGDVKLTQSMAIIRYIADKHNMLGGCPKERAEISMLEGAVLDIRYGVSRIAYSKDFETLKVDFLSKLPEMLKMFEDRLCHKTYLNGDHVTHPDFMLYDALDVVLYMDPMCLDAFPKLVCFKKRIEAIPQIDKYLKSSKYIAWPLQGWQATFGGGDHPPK
Procedure: as §2, §3

[8] = biological target: T1, DLL1 antigen (recombinant DLL1 protein); assay: as above
Procedure: as §2, §3

B1: AbD33906 (Fab fragment, monovalent) (Fab, V domains shown)
VH: QVQLVQSGAEVKKPGSSVKVSCKASGGTFSSYAISWVRQAPGQGLEWMGGIIPQFGIANYAQKFQGRVTITADESTSTAYMELSSLRSEDTAVYYCAREGYSDYSAFDYWGQGTLVTVSS
VL: DIALTQPASVSGSPGQSITISCTGTSSDVGTYNYVNWYQQHPGKAPKVMIYRVSNRPSGVSNRFSGSKSGNTASLTISGLQAEDEADYYCSSWDEHSYVFGGGTKLTVLG
notes: also called AbD33906 Fab fragments
emission value DLL1 antigen/emission value PBST [1]: 7 ratio
emission value DLL1 antigen/emission value PBST [2]: 132 ratio

B2: AbD33905 (Fab fragment, monovalent) (Fab, V domains shown)
VH: EVQLLESGGGLVQPGGSLRLSCAASGFTFSSYAMHWVRQAPGKGLEWVSFISSGGSTTYYADSVKGRFTISRDNSKNTLYLQMNSLRAEDTAVYYCARFRSGYFDYWGQGTLVTVSS
VL: DIVMTQSPLSLPVTPGEPASISCRSSQSLVHSNGADYLNWYLQKPGQSPQLLIYKGSNRDSGVPDRFSGSGSGTDFTLKISRVEAEDVGVYYCQQGYDFPPFTFGQGTKVEIKR
notes: Monovalent Fab; also called Ab33905; monovalent AbD33905
emission value DLL1 antigen/emission value PBST [3]: 8 ratio
emission value DLL1 antigen/emission value PBST [4]: 66 ratio

B3: AbD33905 in form of a bivalent Fab fragment fused to alkaline phosphatase followed by a FLAG-tag and Twin-Strep-tag (Fab, V domains shown)
VH: B2 VH
VL: B2 VL
notes: it is put on the heavy chain here; also called AbD33905 bivalent Fab fragment; not shown: alkaline phosphatase, then FLAG-tag and Twin-Strep-tag
Emission data [5]: 46 arbitrary units
Emission data [6]: 71 arbitrary units
Emission data [7]: 70 arbitrary units
Emission data [8]: 15500 arbitrary units
